These results are taken from patent publication US20090291088A1 (Biogen, published 2009).

Assay [1] addresses T1, rat IGF-1R expressed on immune cells (rat, UniProt P24062 31-1370).
T1 construct: whole, on cells
The assay can be described thus: FACS on granulocytes, monocytes, lymphocytes.

The target of assay [2] is T2, human IGF-1R(1-902)-His10 (human, UniProt P08069 31-932).
T2 construct: Cy5-labelled in tr-FRET; also called hIGF-1R-His10; IGF-1R-His
The assay can be described thus: SPR, antibody over IGF-1R-10His captured by anti-His, 1:1 model, approximate. The procedure: All surface plasmon resonance (SPR) experiments were performed on a Biacore 3000 set to 25° C. using HBS-EP (Biacore, Cat. No. BR-1001-88) as the running buffer. A biotin-labeled anti-HisTag antibody (biotin-PENTA-His, Qiagen Cat. No. 34440) was immobilized to saturation on a Biacore SA chip (Cat. No. BR-1000-32) surface by injection at 500 nM in HBS-EP buffer. […] Subsequent to IGF-1R injections, flow rates were increased to 20 μL/min. A second, 130 μL injection of anti-IGF-1R antibody or Fab was performed to investigate interactions with the receptor. Each antibody and Fab was serially diluted from 64 nM to 0.5 nM to obtain concentration dependent kinetic binding curves. Each injection series was regenerated using 3×10 μL injections of 10 mM Acetate, pH 4.0, at 20 μL/min. Each curve was double referenced using (1) data obtained from a streptavidin surface devoid of IGF-1R and (2) data from a primary injection of IGF-1R followed by a secondary injection of HBS-EP buffer. […]
(§1) The rates at which the antibodies accumulate on the IGF-1R coated surface when applied at various concentrations as well as the rates at which they dissociated during applications of pure buffer were investigated by fitting the data to a 1:1 binding model. Approximate kinetic rate constants and equilibrium dissociation constant were calculated (Table 14).

The target of assay [3] is T3, human IGF-1R expressed on cells (human, UniProt P08069 31-1367).
T3 construct: On MCF-7 tumor cells or on 3T3/CHO transfectants; precursor is processed into alpha and beta subunits; Signal peptide 1-30 left out as stated; also called wild type IGF-1R; IGF-1R 3T3
The assay can be described thus: binding to tumor cells.

The next assay concerns the target T4, human INSR(28-956)-His10 (human, UniProt P06213 28-956).
T4 construct: range 28-956; Bought (R&D Systems 1544-IR); also called rh-INSR; soluble insulin receptor
The assay can be described thus: SPR, INSR over immobilised antibody. For orientation: Surface plasmon resonance follows binding to a sensor surface in real time, without labels.

Assay [4] has as its target T2, human IGF-1R(1-902)-His10. The assay can be described thus: SPR, antibody over captured IGF-1R-10His. The procedure:
All surface plasmon resonance (SPR) experiments were performed on a Biacore 3000 set to 25° C. using HBS-EP (Biacore, Cat. No. BR-1001-88) as the running buffer. A biotin-labeled anti-HisTag antibody (biotin-PENTA-His, Qiagen Cat. No. 34440) was immobilized to saturation on a Biacore SA chip (Cat. No. BR-1000-32) surface by injection at 500 nM in HBS-EP buffer. […] Subsequent to IGF-1R injections, flow rates were increased to 20 μL/min. A second, 130 μL injection of anti-IGF-1R antibody or Fab was performed to investigate interactions with the receptor. Each antibody and Fab was serially diluted from 64 nM to 0.5 nM to obtain concentration dependent kinetic binding curves. Each injection series was regenerated using 3×10 μL injections of 10 mM Acetate, pH 4.0, at 20 μL/min. Each curve was double referenced using (1) data obtained from a streptavidin surface devoid of IGF-1R and (2) data from a primary injection of IGF-1R followed by a secondary injection of HBS-EP buffer. The concentration series for each antibody and Fab was fit to the 1:1 binding model provided within the BiaEvaluation software of the manufacturer.
as §1

Assay [5] addresses T5, human insulin receptor expressed in mammalian cells (UniProt P06213 28-1382, limits assumed).
T5 construct: whole, on cells; Cells were solubilised with Triton X-100 before immunoprecipitation; also called INSR; IR
The assay can be described thus: immunoprecipitation from IR CHO lysate, western blot with mouse anti-human IR. As to the method:
Recombinant IGF-1R and insulin receptor (IR) were independently expressed in mammalian cells (3T3 or CHO). […] Antibody/antigen complexes were released from the beads by acid treatment, applied to Tris-Glycine SDS-PAGE gels and blotted to nitrocellulose membranes. Detection was performed using mouse anti-human IR (FIG. 24A) or mouse anti-human IGF-1R (FIG. 24B) and goat α-mouse IgG.
(In general: A western blot detects proteins with antibodies after separation by electrophoresis.)

The target of assay [6] is T6, IGF-1R (soluble, construct not stated) (human, UniProt P08069 31-932, limits assumed).
T6 construct: whole entry named; also called Solube IGF-1R Protein; soluble recombinant human IGF-1R
The assay can be described thus: binding to soluble IGF-1R protein.

Assay [7] concerns the target cynomolgus IGF-1R expressed on cells (cynomolgus macaque, UniProt G7P9I7 31-1343). The assay can be described thus: binding to CHO transfectants.
Assay [8] addresses T7, Rhesus IGF-1R expressed on CHO cells (rhesus monkey, UniProt I2CWY3 31-1367).
T7 construct: whole, on cells; also called Rhesus IGF-1R/CHO
The assay can be described thus: binding to CHO transfectants.

Assay [9] deals with T8, human IGF-1R(1-903)-Fc (human, UniProt P08069 31-933).
T8 construct: Made by Biogen Idec; Multimerises through IGF-1R and Fc; also called hIGF-1R-Fc; IGF-1R-Fc; not shown: C-terminal human IgG1-Fc tag
The assay can be described thus: competition ELISA: biotinylated hIGF-1R-Fc on streptavidin plate, 320 nM human IGF-2 His, detection with anti-His-HRP; blocked ligand human IGF-2 His.

The target of assay [10] is T6, IGF-1R (soluble, construct not stated …). The assay can be described thus: ligand blocking, competitor IGF-2; IGF-2 as the blocked ligand.
In assay [11] the target is T3, human IGF-1R expressed on cells. The assay can be described thus: cell-based or functional assay.
The target of assay [12] is T8, human IGF-1R(1-903)-Fc. The assay can be described thus: competition ELISA: biotinylated hIGF-1R-Fc on streptavidin plate, 320 nM human IGF-1 His, detection with anti-His-HRP; blocked ligand human IGF-1 His. The procedure:
hIGF-1R-Fc was biotinylated using EZ-Link Sulfo-NHS-LC-Biotin according to the protocol provided by the manufacturer (Pierce Cat. No. 21335). Biotinylated human IGF-1R-Fc at 5 μg/ml was added to the wells of SigmaScreen streptavidin-coated 96-well plates (Sigma, Cat. No. M5432-5EA; Sigma-Aldrich Corp. (St. Louis, Mo., USA)) at 100 μL/well and incubated overnight at 2-8° C. The plates were then washed four times with 200 μL/well PBST. […] The dilutions were added to the plates in duplicate at 100 μL/well and the plates were incubated at RT for 1 hour. The plates were then washed four times with 200 μL/well PBST. An HRP-conjugated anti-Histag antibody (Penta-His HRP Conjugate, QIAGEN, Cat. No. 1014992) was diluted 1:1000 in PBST and added to plates at 100 μL/well, and the plates were incubated at RT for one hour. The plates were then washed four times with 200 μL/well PBST. SureBlue Reserve TMB Microwell Peroxidase Substrate (KPL, Cat. No. 53-00-01) was added to plates at 100 μL/well followed by 1% phosphoric acid at 100 μL/well once the desired reaction was observed. The absorbance of each well was determined at 450 nm, and the results were normalized and plotted against the log of antibody concentration.
(In general: In an ELISA, binding on a coated surface is turned into a signal by an enzyme label.)

In assay [13] the target is T8, human IGF-1R(1-903)-Fc. The assay can be described thus: ELISA, plate coated with soluble IGF-1 receptor Fc fusion protein, detection with anti-human kappa-HRP. As to the method:
The plate was washed with phosphate-buffered saline (PBS, Irvine Scientific, Cat#9240), pH 7.4 plus 0.025% Tween 20 in the Skan Washer 300 (Skatron Instruments), blocked with buffer containing 1% nonfat milk, 0.05% Tween 20 in PBS, pH 7.4, and then incubated at room temperature for 1 hour. After incubation plate was washed with PBS plus 0.025% Tween 20 in the Skan Washer 300. […] Following a one hour incubation at room temperature, plate was washed with PBS plus 0.025% Tween 20 in the Skan Washer 300. […] Plate incubated for 1 hour at room temperature was washed with PBS plus 0.025% Tween 20 in the Skan Washer 300. […] The absorbance was measured at 450 nm, background 540 nm for TMB using the Molecular Devices plate reader. Data was analyzed using the SOFTMAX PRO software package version 4.3 LS (Molecular Devices Corp.).

Assay [14] has as its target T6, IGF-1R (soluble, construct not stated …). The assay can be described thus: ligand blocking, competitor IGF-1; IGF-1 as the blocked ligand.
The target in assay [15] is T8, human IGF-1R(1-903)-Fc. The assay can be described thus: ELISA on hIGF-1R-Fc, competitor biotinylated M13-C06.

T1 sequence (P24062 31-1370): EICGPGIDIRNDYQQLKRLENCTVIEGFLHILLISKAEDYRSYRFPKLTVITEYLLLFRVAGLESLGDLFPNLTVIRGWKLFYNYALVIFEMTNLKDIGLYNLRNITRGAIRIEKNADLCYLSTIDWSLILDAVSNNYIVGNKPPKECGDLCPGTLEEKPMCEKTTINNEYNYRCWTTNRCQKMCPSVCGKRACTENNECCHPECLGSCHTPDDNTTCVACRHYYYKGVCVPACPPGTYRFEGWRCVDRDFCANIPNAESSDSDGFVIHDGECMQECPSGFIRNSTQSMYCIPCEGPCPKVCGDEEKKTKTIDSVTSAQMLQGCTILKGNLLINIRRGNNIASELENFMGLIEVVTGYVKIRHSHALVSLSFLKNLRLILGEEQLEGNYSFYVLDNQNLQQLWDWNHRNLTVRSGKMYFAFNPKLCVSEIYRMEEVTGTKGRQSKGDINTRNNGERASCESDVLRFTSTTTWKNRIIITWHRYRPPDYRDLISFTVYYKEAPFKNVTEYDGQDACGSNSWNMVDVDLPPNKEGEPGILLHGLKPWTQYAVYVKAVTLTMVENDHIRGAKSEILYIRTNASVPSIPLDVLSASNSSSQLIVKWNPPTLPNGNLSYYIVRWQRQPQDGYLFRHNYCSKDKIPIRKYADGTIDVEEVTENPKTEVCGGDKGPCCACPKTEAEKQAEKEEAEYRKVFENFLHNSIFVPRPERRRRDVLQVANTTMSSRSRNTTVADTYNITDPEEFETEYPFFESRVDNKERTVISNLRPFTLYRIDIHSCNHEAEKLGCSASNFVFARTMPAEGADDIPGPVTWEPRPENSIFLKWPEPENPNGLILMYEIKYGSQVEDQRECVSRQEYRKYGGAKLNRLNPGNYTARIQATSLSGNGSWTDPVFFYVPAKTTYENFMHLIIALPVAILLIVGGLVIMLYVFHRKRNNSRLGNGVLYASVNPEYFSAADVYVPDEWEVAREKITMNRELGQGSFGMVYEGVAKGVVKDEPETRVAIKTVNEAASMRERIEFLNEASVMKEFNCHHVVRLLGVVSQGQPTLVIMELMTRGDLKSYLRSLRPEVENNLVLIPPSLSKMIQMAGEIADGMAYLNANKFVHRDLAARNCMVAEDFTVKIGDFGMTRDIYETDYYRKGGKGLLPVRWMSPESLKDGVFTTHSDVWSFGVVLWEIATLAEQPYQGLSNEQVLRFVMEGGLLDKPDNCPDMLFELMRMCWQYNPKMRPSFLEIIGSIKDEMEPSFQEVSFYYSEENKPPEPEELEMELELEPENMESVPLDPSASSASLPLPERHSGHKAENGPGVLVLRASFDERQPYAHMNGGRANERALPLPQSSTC
T7 sequence (I2CWY3 entry or part of it): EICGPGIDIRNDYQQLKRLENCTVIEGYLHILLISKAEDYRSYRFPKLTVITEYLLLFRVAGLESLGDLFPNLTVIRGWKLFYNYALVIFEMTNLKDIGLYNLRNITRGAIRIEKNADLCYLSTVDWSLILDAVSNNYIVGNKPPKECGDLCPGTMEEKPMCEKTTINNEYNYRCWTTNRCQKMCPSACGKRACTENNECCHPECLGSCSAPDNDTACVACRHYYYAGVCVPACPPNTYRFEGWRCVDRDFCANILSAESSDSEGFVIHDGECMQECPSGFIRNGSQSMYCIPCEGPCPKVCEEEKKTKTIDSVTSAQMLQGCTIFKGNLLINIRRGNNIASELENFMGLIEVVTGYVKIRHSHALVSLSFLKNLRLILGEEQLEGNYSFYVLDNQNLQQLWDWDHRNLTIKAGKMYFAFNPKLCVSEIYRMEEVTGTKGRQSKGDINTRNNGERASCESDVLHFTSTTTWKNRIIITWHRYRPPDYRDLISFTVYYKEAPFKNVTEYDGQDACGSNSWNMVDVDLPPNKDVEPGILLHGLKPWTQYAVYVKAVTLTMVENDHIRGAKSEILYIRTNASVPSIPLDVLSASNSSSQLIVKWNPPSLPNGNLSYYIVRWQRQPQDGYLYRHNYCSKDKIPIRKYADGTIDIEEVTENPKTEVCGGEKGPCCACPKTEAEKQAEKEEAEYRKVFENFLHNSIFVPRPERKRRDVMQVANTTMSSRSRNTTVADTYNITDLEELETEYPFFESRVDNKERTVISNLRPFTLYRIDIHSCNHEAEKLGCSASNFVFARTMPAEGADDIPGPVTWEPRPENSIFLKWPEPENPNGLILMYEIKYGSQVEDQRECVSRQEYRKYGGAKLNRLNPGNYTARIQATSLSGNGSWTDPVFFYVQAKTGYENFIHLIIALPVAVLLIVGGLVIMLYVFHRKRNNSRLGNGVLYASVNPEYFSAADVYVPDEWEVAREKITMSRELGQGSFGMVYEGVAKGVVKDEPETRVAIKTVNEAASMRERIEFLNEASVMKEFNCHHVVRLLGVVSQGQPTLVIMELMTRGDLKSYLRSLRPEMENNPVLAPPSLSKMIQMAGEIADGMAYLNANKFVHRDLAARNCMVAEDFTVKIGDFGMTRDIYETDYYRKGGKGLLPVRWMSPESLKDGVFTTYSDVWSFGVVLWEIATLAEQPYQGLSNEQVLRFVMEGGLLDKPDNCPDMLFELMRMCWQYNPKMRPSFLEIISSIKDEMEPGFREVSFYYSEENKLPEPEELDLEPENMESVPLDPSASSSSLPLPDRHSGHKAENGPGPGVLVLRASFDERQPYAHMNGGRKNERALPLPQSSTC

B1: M13-C06.G4.P.agly (antibody, human IgG4 S228P, kappa, V domains shown)
VH: EVQLLESGGGLVQPGGSLRLSCAASGFTFSIYRMQWVRQAPGKGLEWVSGISPSGGTTWYADSVKGRFTISRDNSKNTLYLQMNSLRAEDTAVYYCARWSGGSGYAFDIWGQGTMVTVSS
VL: DIQMTQSPLSLSASVGDRVTITCQASRDIRNYLNWYQQKPGKAPKLLIYDASSLQTGVPSRFGGSGSGTDFSFTIGSLQPEDIATYYCQQFDSLPHTFGQGTKLEIKR
notes: Full-length human aglycosylated IgG4.P (S228P/T299A, EU), kappa; Places that say only 'M13-C06 antibody' were assigned to this version; Labelled with Eu chelate or biotin in some assays; also called M13-C06_Ab; Eu-C06
As a reminder, the Kd is a measure of binding affinity in units of concentration. One may read the EC50 as the concentration at which the effect is half-maximal. Read a low EC50 as an effect from little substance. One may read the koff as the first-order rate constant of dissociation. Read a low koff as a long-lived complex. A word on the kon: it is a measure of how fast the partners come together. Broadly, the IC50 is the concentration that gives 50% inhibition. What is called EC50 (read off the curve) is the concentration at which the effect is half-maximal. Lower therefore signals higher potency in that assay. Consider B1, for which the binding result is on record as “no binding” in assay [1], “no binding (tested: 2 µM)” in the assay with human INSR(28-956)-His10 and “no binding” in assay [5]. Further, the equilibrium dissociation constant (Kd) in assay [2] stood at 0.13 nM. The EC50 in [3] is 0.22 nM; in assay [6] it was 0.0422 nM; in assay [7] it was 0.47 nM; in [8], 0.27 nM. Also, the koff in assay [4] was 0.00025 s⁻¹. Also, in assay [4], the kon was determined as 1.8e+06 M⁻¹ s⁻¹. Also, the “IC50 (read off the curve)” value with human IGF-1R(1-903)-Fc [9] and with human IGF-1R(1-903)-Fc [12] was around 1 nM throughout. Further, the IC50 in assay [10] was determined as 0.525 nM; in [14] it was 0.979 nM. For the same molecule, the “inhibition of IGF-1 and IGF-2 mediated IGF-1R receptor phosphorylation (EC50)” value in assay [11] was below 1 nM. The “EC50 (read off the curve)” value with human IGF-1R(1-903)-Fc [13] was around 0.04 nM. The “percent competition (relative to self-competition)” value with human IGF-1R(1-903)-Fc [15] was in the range of 90 to 100%.
